Assay results reported in patent US20260184814A1, “BROADLY NE[…] INFLUENZA NEURAMINIDASE” (priority 2022, published 2026).

Key:
N1 [1] = experiment: Bio-Layer Interferometry (BLI)
N2 [2] = experiment: Bio-Layer Interferometry (BLI)
N9 [3] = experiment: Bio-Layer Interferometry (BLI)
N1 [4] = experiment: Bio-Layer Interferometry (BLI); printed as kdis
N2 [5] = experiment: Bio-Layer Interferometry (BLI); printed as kdis
N9 [6] = experiment: Bio-Layer Interferometry (BLI); printed as kdis
[7] = molecular target: B/MALAYSIA/3120318925/2013 (YAMAGATA) (Influenza B virus); experiment: flow cytometry, NA transiently expressed on Expi-CHO cells
[8] = molecular target: B/WISCONSIN/1/2010 (YAMAGATA) (Influenza B virus); experiment: as above
[9] = molecular target: IBV neuraminidase from B/Lee/10/1940 (Ancestral) (Influenza B virus B/Lee/10/1940) (UniProt P03474); experiment: as above
[10] = molecular target: IBV neuraminidase from B/Malaysia/2506/2004 (Victoria) (Influenza B virus B/Malaysia/2506/2004); experiment: as above
[11] = molecular target: IBV neuraminidase from B/Yamanashi/166/1998 (Yamagata) (Influenza B virus B/Yamanashi/166/1998); experiment: as above
[12] = molecular target: N1 neuraminidase from A/Stockholm/18/2007 (Influenza A virus A/Stockholm/18/2007); experiment: as above
[13] = molecular target: N2 A/HONG KONG/68 (Influenza A virus); experiment: as above
[14] = molecular target: N2 neuraminidase from A/Leningrad/134/17/57 (Influenza A virus A/Leningrad/134/17/57) (UniProt Q67214); experiment: as above
[15] = molecular target: N2 neuraminidase from A/Washington/01/2007 (Influenza A virus A/Washington/01/2007); experiment: as above
[16] = molecular target: N3 neuraminidase from A/Canada/rv504/2004 (Influenza A virus A/Canada/rv504/2004); experiment: as above
[17] = molecular target: N4 A/MALLARD DUCK/…/30/2011 (Influenza A virus); experiment: as above
[18] = molecular target: N5 A/AQUATIC BIRD/KOREA/CN5/2009 (Influenza A virus); experiment: as above
[19] = molecular target: N6 neuraminidase from A/swine/Ontario/01911/1/99 (Influenza A virus A/swine/Ontario/01911/1/99); experiment: as above
[20] = molecular target: N7 neuraminidase from A/Netherlands/078/03 (Influenza A virus A/Netherlands/078/03); experiment: as above
[21] = molecular target: N8 A/HARBOR SEAL/NEW …/179629/2011 (Influenza A virus); experiment: as above
[22] = molecular target: N9 neuraminidase from A/Anhui/1/2013 (Influenza A virus A/Anhui/1/2013 (H7N9)); experiment: as above

1G01 (antibody) was tested, and the Kd (N1 [1]) was 0.868 nM, the kon (N1 [1]) was 55100 M⁻¹ s⁻¹ and the Kd (N2 [2]) was less than 0.001 nM. For the same substance, the kon (N2 [2]) was 40200 M⁻¹ s⁻¹, the Kd (N9 [3]) was less than 0.001 nM and the kon (N9 [3]) was 106000 M⁻¹ s⁻¹. For the same substance, the koff (N1 [4]) was 4.79e-05 s⁻¹, the koff (N2 [5]) was less than 1e-07 s⁻¹ and the koff (N9 [6]) was less than 1e-07 s⁻¹. The lowest concentration at which binding was observed (EC50 scale class) [7] was 10 µg/mL, the lowest concentration at which binding was observed (EC50 scale class) [8] was 2 µg/mL and the lowest concentration at which binding was observed (EC50 scale class) [9] was 10 µg/mL. For the same substance, the lowest concentration at which binding was observed (EC50 scale class) [10] was 0.4 µg/mL, the lowest concentration at which binding was observed (EC50 scale class) [11] was 2 µg/mL and the lowest concentration at which binding was observed (EC50 scale class) [12] was 0.4 µg/mL. The lowest concentration at which binding was observed (EC50 scale class) [13] was 0.4 µg/mL, the lowest concentration at which binding was observed (EC50 scale class) [14] was 0.4 µg/mL and the lowest concentration at which binding was observed (EC50 scale class) [15] was 0.4 µg/mL. The lowest concentration at which binding was observed (EC50 scale class) [16] was 0.4 µg/mL, the lowest concentration at which binding was observed (EC50 scale class) [17] was 0.4 µg/mL and the lowest concentration at which binding was observed (EC50 scale class) [18] was 2 µg/mL. The lowest concentration at which binding was observed (EC50 scale class) [19] was 0.4 µg/mL, the lowest concentration at which binding was observed (EC50 scale class) [20] was 0.4 µg/mL and the lowest concentration at which binding was observed (EC50 scale class) [21] was 0.4 µg/mL. For the same substance, the lowest concentration at which binding was observed (EC50 scale class) [22] was 0.4 µg/mL.
